Data as given in paper PMC9758175.

Experiments:
[1] = molecular target: WspR-His~P (Lysobacter enzymogenes OH11); assay: MST; 100 nM WspR-His labelled with RED-Tris-NTA, titrated with MBP-RpfG or its variant; 50 mM Tris pH 7.5, 150 mM NaCl, 10 mM MgCl2, 0.05% Tween 20; 25 °C; Monolith NT.115
[2] = molecular target: WspR-His (Lysobacter enzymogenes OH11); assay: as above
[3] = molecular target: WspR-His (Lysobacter enzymogenes OH11)
[4] = molecular target: WspR-His (Lysobacter enzymogenes OH11); assay: MST; as the WspR-RpfG MST assay, with 10 μM c-di-GMP added
[5] = molecular target: WspR-His (Lysobacter enzymogenes OH11); assay: MST; as the WspR-RpfG MST assay, with 10 μM DSF added

Chain of WspR-His (Lysobacter enzymogenes OH11) (main, as listed by the source): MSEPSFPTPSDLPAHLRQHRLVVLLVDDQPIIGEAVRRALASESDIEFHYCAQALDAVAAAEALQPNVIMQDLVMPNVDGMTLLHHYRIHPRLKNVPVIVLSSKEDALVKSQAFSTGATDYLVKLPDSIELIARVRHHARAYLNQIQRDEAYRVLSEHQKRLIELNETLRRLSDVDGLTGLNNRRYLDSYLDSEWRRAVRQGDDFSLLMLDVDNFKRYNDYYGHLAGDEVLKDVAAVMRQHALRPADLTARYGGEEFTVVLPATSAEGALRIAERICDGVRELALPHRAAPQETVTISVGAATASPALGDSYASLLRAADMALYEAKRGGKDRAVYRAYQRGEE
Chain of WspR-His~P (Lysobacter enzymogenes OH11) (main, as listed by the source): as above

Row | Kd [1] | Kd [2] | reduction of c-di-GMP production by WspR-His from GTP (HPLC peak area) on addition of MBP-RpfG^H190A [3] | Kd [4] | Kd [5] | reduction of c-di-GMP production by WspR-His from GTP (HPLC peak area) on addition of MBP-RpfG [3] | Substance
1 | 560 nM | 200 nM | 34% | – | – | – | MBP-RpfG^H190A (enzyme)
2 | – | 240 nM | – | – | – | – | phosphorylated RpfG (RpfG~P) (enzyme)
3 | 930 nM | 150 nM | – | 320 nM | 250 nM | 82% | MBP-RpfG (enzyme)
